Reference: the supplement of paper PMC10567573

B1: CDC25A (parent)
chain: KPIVPTDGKRVIVVFHCEFSSERG

Variants of: B1
Test: protein stability index of a GFP-peptide fusion (GPS, HEK-293T) (PSI 1-6); higher = more stable
Settings: c terminus: a fixed tail appended
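Also: lentivirally expressed fusions sorted by FACS into six bins by GFP to DsRed ratio, PSI derived from sequencing read proportions per bin multiplied by bin number.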

| Variant | protein stability index |
| --- | --- |
| C17R | 1.95 |
| V14L | 2.17 |
| S21L | 3.4 |
| C17T | 1.86 |
| E22W | 2.99 |
| T6S | 1.86 |
| S20T | 2.79 |
| V4D | 2.51 |
| C17E | 2.57 |
| S20N | 1.95 |
| E18L | 1.76 |
| I12V | 1.63 |
| I3A | 3.14 |
| E22D | 2.61 |
| S21F | 1.97 |
| R23E | 2.14 |
| E18N | 2.34 |
| I3G | 1.7 |
| R23F | 3.05 |
| C17D | 2.77 |
| D7E | 2.8 |
| K1A | 1.37 |
| V4C | 2.14 |
| F15T | 2.92 |

| Variant | protein stability index |
| --- | --- |
| G24A | 1.29 |
| T6V | 1.61 |
| V13R | 2.91 |
| V11Q | 2.25 |
| H16V | 2.32 |
| S21P | 4.03 |
| V4L | 2.33 |
| R23T | 3.36 |
| C17A | 2.24 |
| F19R | 2.22 |
| G8Q | 1.51 |
| K9H | 2.19 |
| F15Q | 3.78 |
| I12Q | 2 |
| H16Q | 1.83 |
| D7H | 3.21 |
| D7L | 3.2 |
| K9W | 2.4 |
| T6M | 2.11 |
| V13L | 2.97 |
| V14W | 2.09 |
| P5V | 2.29 |
| I12P | 3.39 |
| S21V | 2.61 |

| Variant | protein stability index |
| --- | --- |
| E22F | 3.5 |
| G8C | 1.88 |
| V14S | 2.52 |
| P2C | 3.03 |
| R10M | 2.6 |
| G24W | 3.51 |
| V4G | 2.33 |
| V13S | 3.36 |
| K1Q | 2.15 |
| R10F | 2.43 |
| G24C | 2.7 |
| G8D | 1.33 |
| S21M | 2.22 |
| P2R | 1.99 |
| R10Q | 2.14 |
| C17I | 2.68 |
| E18A | 2.51 |
| I12L | 3.39 |
| I3S | 1.1 |
| G24I | 4.86 |
| T6Y | 2.19 |
| G8M | 3.53 |
| K1S | 2.04 |
| E22K | 1.99 |

| Variant | protein stability index |
| --- | --- |
| K9G | 2.86 |
| K9A | 1.56 |
| S21E | 1.56 |
| E18Q | 3.42 |
| V13E | 3.43 |
| R10A | 1.93 |
| F15R | 3.06 |
| R10D | 1.77 |
| S21H | 2.27 |
| C17M | 1.99 |
| P5K | 2.13 |
| P5M | 2.45 |
| V4W | 2.32 |
| R10C | 3.54 |
| R23C | 2.82 |
| S20W | 2.1 |
| V11M | 2.06 |
| I12M | 2.24 |
| K9S | 2.4 |
| I12A | 2.11 |
| P2S | 1.31 |
| F19E | 2.47 |
| D7P | 3.14 |
| P5G | 1.69 |

| Variant | protein stability index |
| --- | --- |
| P5T | 1.55 |
| V4F | 2.24 |
| I12K | 3.13 |
| R23D | 2.52 |
| P5Y | 2.66 |
| I12G | 3.13 |
| F15H | 3.19 |
| F19G | 2.15 |
| T6L | 1.92 |
| G8N | 1.95 |
| E18H | 3.13 |
| H16Y | 3.43 |
| R23S | 2.19 |
| K9M | 2.36 |
| V13C | 1.79 |
| E18V | 3.1 |
| V13H | 2.08 |
| R10L | 3.23 |
| I12T | 2 |
| V11T | 1.76 |
| K1H | 2.4 |
| R10W | 4.02 |
| T6R | 2.27 |
| F15I | 2.73 |

| Variant | protein stability index |
| --- | --- |
| R10T | 2.54 |
| V11E | 3.05 |
| R23L | 2.44 |
| F15M | 1.61 |
| R10P | 3.09 |
| K1V | 3.69 |
| E18D | 1.79 |
| G8V | 5.1 |
| G8L | 3.42 |
| S20H | 2.8 |
| S20G | 2.51 |
| G8F | 2.28 |
| P5S | 2.29 |
| V14Y | 2.6 |
| F15K | 3.79 |
| G24L | 1.85 |
| H16S | 3.2 |
| I12C | 2.1 |
| G24Q | 3.67 |
| P5W | 3.01 |
| E22R | 2.68 |
| V13K | 3.02 |
| E22G | 1.99 |
| I3N | 2.48 |

| Variant | protein stability index |
| --- | --- |
| F19Q | 2.3 |
| K1P | 2.25 |
| I3M | 2.32 |
| V4M | 1.92 |
| P5C | 4.79 |
| T6G | 1.97 |
| I3K | 2.47 |
| E22T | 2.75 |
| V4Q | 2.44 |
| F15D | 4.34 |
| V4N | 3.39 |
| I12H | 1.83 |
| E22M | 2.29 |
| S21I | 1.42 |
| V11S | 2.35 |
| K1M | 1.86 |
| E22L | 3.4 |
| G24N | 2.29 |
| H16I | 2.85 |
| E18M | 2.38 |
| G8H | 3.19 |
| V13Q | 3.24 |
| G24R | 3.92 |
| S20R | 3.53 |

| Variant | protein stability index |
| --- | --- |
| R23I | 3.36 |
| R10K | 2.51 |
| H16P | 2.46 |
| G24E | 1.93 |
| F15W | 1.55 |
| F19W | 1.86 |
| E18K | 4 |
| H16A | 1.79 |
| F19K | 2.18 |
| S20V | 1.7 |
| T6A | 1.44 |
| E22N | 2.29 |
| E18S | 3.26 |
| V11G | 2.21 |
| D7S | 1.84 |
| E22P | 2.64 |
| V14E | 2.67 |
| F15S | 3.47 |
| V11C | 1.57 |
| D7V | 2.3 |
| P5F | 2.19 |
| F15A | 2.47 |
| K9V | 2.77 |
| I3R | 2.56 |

| Variant | protein stability index |
| --- | --- |
| V11F | 2.11 |
| R23K | 2.67 |
| P2F | 2.37 |
| C17W | 2.91 |
| E22S | 3.61 |
| F19N | 2 |
| R23G | 1.6 |
| P2N | 3.3 |
| I3E | 2.1 |
| S21K | 1.9 |
| R10G | 2.54 |
| S20I | 3.13 |
| K1F | 1.32 |
| H16F | 2.41 |
| T6W | 3.34 |
| I12S | 1.82 |
| T6F | 2.46 |
| K9T | 2.66 |
| V14T | 1.72 |
| K1D | 2.13 |
| V4S | 2.49 |
| T6I | 2.31 |
| E18F | 3.14 |
| V4R | 3.53 |

| Variant | protein stability index |
| --- | --- |
| F15G | 2.98 |
| V13M | 1.16 |
| H16D | 2.06 |
| F19A | 1.71 |
| V11A | 1.93 |
| S21T | 3.26 |
| F19M | 2.05 |
| V11W | 3.24 |
| K1R | 2.65 |
| V13P | 3.21 |
| K1C | 3.33 |
| V11R | 1.68 |
| F15V | 2.84 |
| E22Q | 1.96 |
| G24S | 2.92 |
| V14Q | 2.24 |
| V14K | 2.43 |
| V11N | 2.14 |
| V13F | 2.33 |
| F19P | 1.8 |
| F19I | 1.65 |
| E18R | 2.48 |
| I12E | 2.84 |
| P2V | 1.82 |

| Variant | protein stability index |
| --- | --- |
| V14M | 1.9 |
| T6N | 2.28 |
| R23N | 3.72 |
| P5R | 1.84 |
| I3P | 2.27 |
| V4Y | 2.58 |
| C17F | 1.93 |
| P5A | 2.63 |
| P2Y | 2.75 |
| V13Y | 2.31 |
| F15Y | 1.72 |
| G8E | 2.13 |
| C17P | 2.64 |
| F15N | 3.98 |
| G8P | 1.52 |
| K1I | 2.57 |
| R10N | 2.39 |
| P5L | 2.4 |
| K1W | 2.24 |
| S20K | 2.76 |
| F19V | 2.19 |
| K9D | 2.19 |
| C17Y | 2.9 |
| G8W | 2.51 |

| Variant | protein stability index |
| --- | --- |
| V11P | 2.31 |
| H16T | 3.6 |
| G8R | 2.3 |
| K1E | 1.68 |
| V14I | 2.56 |
| E22H | 2.7 |
| C17S | 1.85 |
| K9F | 2.2 |
| I3W | 4.26 |
| C17G | 1.98 |
| V13T | 2.38 |
| D7K | 1.8 |
| P2A | 3.03 |
| T6E | 1.82 |
| E22A | 2.39 |
| G8Y | 2.16 |
| F19D | 2.41 |
| V14C | 2.57 |
| V13G | 2.8 |
| V14D | 3.36 |
| S20A | 1.96 |
| S20E | 1.12 |
| V14A | 1.92 |
| E18I | 2.28 |

| Variant | protein stability index |
| --- | --- |
| H16K | 1.49 |
| F19L | 2.32 |
| S20F | 3.29 |
| E18G | 2.55 |
| T6D | 1.8 |
| R10I | 1.45 |
| R23W | 1.55 |
| H16L | 3.13 |
| G8I | 2.89 |
| S21C | 3.38 |
| V11H | 1.58 |
| E18W | 2.46 |
| I3F | 2.09 |
| F19H | 1.86 |
| R10E | 2.96 |
| D7N | 2.48 |
| R10V | 2.76 |
| R23Y | 2.99 |
| P2I | 3.46 |
| R23M | 2.92 |
| G24M | 3.17 |
| H16C | 2.31 |
| I12F | 3.2 |
| S21D | 1.28 |

| Variant | protein stability index |
| --- | --- |
| K9Q | 3.32 |
| H16R | 3.3 |
| V13W | 1.79 |
| G24P | 2.66 |
| V14H | 2.54 |
| R23H | 1.84 |
| H16M | 4.57 |
| C17N | 2.52 |
| P2Q | 2.24 |
| F19C | 1.98 |
| D7T | 3.31 |
| S20Q | 1.71 |
| V14R | 2.09 |
| V11Y | 2.59 |
| H16G | 1.76 |
| T6C | 2.64 |
| V4E | 1.48 |
| F15P | 4.14 |
| D7A | 2.21 |
| V4H | 2.17 |
| S21A | 2.27 |
| S20M | 2.43 |
